According to patent publication US20230148181A1, “ENZYME FOR THE CONVERSION OF CHLOROGENIC ACID INTO ISOCHLOROGENIC ACID” (UNIVERSITE DE LORRAINE, priority 2020, published 2023):

Experiments:
Assay type in all cases: biochemical
[1] = bioconversion of pure CGA into 3,5-DCQ by P. pastoris culture or supernatant expressing IbGDSL
Description: The bioconversion of CGA into 3,5-DCQ in vivo requires the establishment of a highly metabolically active P. pastoris culture. The yeasts are cultured in nutrient medium containing a 100 mM potassium phosphate buffer with a pH adjusted to pH 6.0. This allows the medium in which the enzyme obtained from the microbial cells and the substrate will be in contact, to be maintained at pH 6. After establishing an inoculum of 25 mL of yeast culture overnight at 30° C. under agitation of 250-300 rpm, this is used to inoculate a volume of 100-200 mL of nutrient medium in such a way as to obtain an OD600nm around 1. To this culture 0.5% methanol is added in order to initiate the production of IbGDSL. The addition of methanol is repeated every 24 hours to maintain the level of induction of protein production. […]
The first step of this experiment is to show whether the IbGDSL produced by P. pastoris is capable of converting CGA into 3,5-DCQ knowing that the original enzyme could potentially be glycosylated three-fold and that the glycan trees generated by P. pastoris are not comprised and organised in the same way as the plant glycan trees. These differences could directly influence the stability and prevent the proper activity of the enzyme. To do so, supernatants from two P. pastoris cultures, one transformed with the empty vector (negative control) and the other with the vector carrying the gene encoding IbGDSL were recovered after 3 days of methanol induction. These supernatants were incubated at pH 6.5 with 10 mM chlorogenic acid for 30 minutes at 36° C. The enzymatic reaction was then stopped with the addition of ethanol and analysed by UPLC-MS.
The second step of this experiment is to show whether the CGA directly added to the P. pastoris culture medium expressing the enzyme could be directly converted into 3,5-DCQ. The objective is to avoid the purification step of the enzyme if necessary.
[…] This experiment was conducted at 30° C., the ideal temperature for the culture and growth of the P. pastoris organism.

[2] = bioconversion of chlorogenic acid from green coffee (Coffea canephora) extract into 3,5-DCQ by IbGDSL from P. pastoris
Description: The bioconversion reaction of CGA into 3,5-DCQ was also carried out from a green coffee (Coffea canephora) extract whose composition is indicated in FIG. 7A. This green coffee extract, comprising a CGA concentration equivalent to 10 mM and bioconverted over a period of 50 hours, at 30° C. and pH 6, led to a new extract whose composition is shown in FIG. 7B. […] Furthermore, no other caffeic acid-containing substrate than chlorogenic acid is biotransformed as no decrease in peaks is observed except for that corresponding to CGA. Bioconversion of green coffee extract with IbGDSL increases the 3,5-DCQ content initially present in the extract 4.5-fold (200 mg/L at T0 and 900 mg at T50h) for a starting CGA concentration equivalent to 10 mM. Bioconversion of CGA into 3,5-DCQ from the green coffee extract was performed after 4 and 7 days, in order to analyse the effect of a reaction with GDSL taking place over a long period of time (FIG. 9). […] The concentration of the IbGDSL enzyme obtained by fermentation of P. pastoris accelerates the reaction speed of the conversion of CGA into 3,5-DCQ (FIG. 10). It is noticed that the same level of 3,5-DCQ concentration can be obtained for enzyme concentration factors of 10-, 20- and 37-fold after 60 h of bioconversion.

[3] = in vitro enzyme assay of purified recombinant IbGDSL (produced in N. benthamiana): conversion of CGA into 3,5-DCQ, UPLC-MS
Description: The in vitro enzyme assays are conducted on the purified recombinant enzyme produced in a plant system. After 6 days of co-culture, N. benthamiana leaves agro-infiltrated with the vector carrying the gene of interest, are harvested and ground in extraction buffer (20 mM sodium phosphate, 0.5 M NaCl, pH 7.4). The extract is then centrifuged and the supernatant containing all the soluble proteins including IbGDSL is recovered and sterilised by 0.2 μm filtration. Protein purification is then conducted according to the supplier's instructions on Nickel columns (HisTrap HP-GE HEALTHCARE). […]
Enzyme assays are performed in a 50 μl volume with 200-400 ng of the purified protein (that is a few μl). The optimal reaction pH will be determined using a polybuffer (0.1 M Tris/20 mM MES/0.1 M acetic acid) from which a pH range of 4 to 9 will be constructed. […]
3,5-DCQ quantification is done by measuring the area of the peak of a 3,5-DCQ standard at 330 nm. […] The contents of the other compounds (chlorogenic acid and the other DCQ isomers) are expressed as 3,5-DCQ equivalents. The content is calculated according to the following formula for a compound: […]
A pH range between 4 and 9 was established to determine the optimal pH for the conversion of CGA into 3,5-DCQ by virtue of IbGDSL. […] From the curve obtained it was determined that the optimal reaction pH is between 6 and 7 (FIG. 3A). […]

B1: IbGDSL: recombinant GDSL esterase/lipase enzyme of Ipomoea batatas (SEQ ID No. 1) converting chlorogenic acid into isochlorogenic acid (protein)
chain: MAAAAPSSSLLGVLMLLASIGYAAACYSAVFGFGDSLTDAGNLIRLEPDGTVPHMYFPPYGETYFDKPTGRCSDGRLIVDLIAQHYGLPLPPPSIPASLEGDKNRLRAGVNFAVVGSRALDAQFYEQRDIFDTVTNVSMTDQLNWFKELLPSLCSSPHDCKELLDGSLFVLGEFGGNDYTHSLLSGKGINVIRPFIPIVTRAIAQAVHELVELGARTVMIPSVLPLGCAASYLTYYPSPNPDDYDELGCLIWVNEMASYHNQLLQQQLAHVRELHPYANIVFADIYNAAMEVYQGPDTYGFSGGALRACCGGGGPYNFNTSAQCGNEGATACDNPSSYVNWDGYHLTEAAYQCITTGLLEGPYTYPRMKNLCRFDSRKTSRVAQI
modifications: Ipomoea batatas
- bioconversion yield of CGA into 3,5-DCQ ([1]; 10 mM CGA added directly to culture, pH 6, 30° C., 3 days, stoichiometric limit 50%): around 44%
- maximum yield of conversion of pure CGA into 3,5-DCQ ([1]; after 50 hours of bioconversion, 5- and 7.5-mM starting CGA): 32%
- 3,5-DCQ content, maximum amounts ([1]; after 50 hours of bioconversion, starting pure CGA 7.5 and 9 mM): ~1.2 g/L
- activity of enzyme secreted in P. pastoris supernatant (3,5-DCQ peak) ([1]; supernatant after 3 days methanol induction, pH 6.5, 10 mM chlorogenic acid, 30 minutes at 36° C.): functional
- product specificity of the bioconversion ([2]; green coffee extract equivalent to 10 mM CGA, 50 hours, 30° C., pH 6): exclusively catalyses the formation of 3,5-DCQ
- 3,5-DCQ content at T50h ([2]; starting CGA equivalent to 10 mM, 30° C., pH 6): 900 mg
- increase of the 3,5-DCQ content initially present in the extract ([2]; starting CGA equivalent to 10 mM, T50h versus T0): 4.5 fold
- CGA concentration from which a slowing down of the enzyme activity is observed ([3]; pH 6.5, 30 minutes of incubation at 36° C.): ≥ 10 mM
- temperature of maximum conversion ([3]; purified IbGDSL, 10 mM CGA, pH 6.5, temperature range 15-45° C.): 37 °C
